Experimental findings from publication doi:10.1101/2021.07.23.453529, “TELSAM polymers accelerate crystallization of fused target proteins by stabilizing minimal crystal contacts and in the absence of direct inter-TELSAM contacts” (bioRxiv, 2021) are described below.

Sequences and labels used below:
B4: 3TEL (three tandem TELSAM monomers) of 3TEL-rigid-DARPin (domain or fragment, human)
chain: GSIRLPAHLRLQPIYWSRDDVAQWLKWAENEFSLRPIDSNTFEMNGKALLLLTKEDFRYRSPHSGDELYELLQHILKQRPGGGGSTSIRLPAHLRLQPIYWSRDDVAQWLKWAENEFSLRPIDSNTFEMNGKALLLLTKEDFRYRSPHSGDVLYELLQHILKQRPGGGGSTSIRLPAHLRLQPIYWSRDDVAQWLKWAENEFSLRPIDSNTFEMNGKALLLLTKEDFRYRSPHSGDVLYELLQHILKQR
notes: residue printed before TEL S47, left after SUMO cleavage; first TEL-SAM domain of 3TEL (human ETS variant transcription factor 6), the only one with V112E; flexible inter-TELSAM linker, as in PDB ID 2QAR; second TEL-SAM domain of 3TEL (human ETS variant transcription factor 6); third TEL-SAM domain of 3TEL (human ETS variant transcription factor 6); written apart for the contacts between the two …

Data set [1] concerns the molecule itself. In words: crystal structure; 3TEL-rigid-DARPin, 15 mg/mL, sitting drop, HEPES pH 7.3-7.4 with PEG; P1211, 2 molecules per asymmetric unit; contacts within the polymer and the crystal lattice.
For data set [2], the target named is B4. The description is as above. To be noted: both partners purified.
Data set [3] concerns the molecule itself. In words: crystal structure; 1TEL-flex-vWa, 20 mg/mL, sitting drop, 100 mM Bis-Tris, pH 5.7, 3.0 M NaCl; P65, 1 molecule per asymmetric unit; contacts within the polymer and the crystal lattice.

B1: 3TEL-rigid-DARPin (other, human)
chain: GSIRLPAHLRLQPIYWSRDDVAQWLKWAENEFSLRPIDSNTFEMNGKALLLLTKEDFRYRSPHSGDELYELLQHILKQRPGGGGSTSIRLPAHLRLQPIYWSRDDVAQWLKWAENEFSLRPIDSNTFEMNGKALLLLTKEDFRYRSPHSGDVLYELLQHILKQRPGGGGSTSIRLPAHLRLQPIYWSRDDVAQWLKWAENEFSLRPIDSNTFEMNGKALLLLTKEDFRYRSPHSGDVLYELLQHILKQRDLEAEAAAAEDLGKKLLEAARAGQDDEVRILMANGADVNATDNDGYTPLHLAASNGHLEIVEVLLKNGADVNASDLTGITPLHAAAATGHLEIVEVLLKHGADVNAYDNDGHTPLHLAAKYGHLEIVEVLLKHGADVNAQDKFGKTAFDISIDNGNEDLAEILQKLN
notes: residue printed before TEL S47, left after SUMO cleavage; first TEL-SAM domain of 3TEL (human ETS variant transcription factor 6), the only one with V112E; flexible inter-TELSAM linker, as in PDB ID 2QAR; second TEL-SAM domain of 3TEL (human ETS variant transcription factor 6); third TEL-SAM domain of 3TEL (human ETS variant transcription factor 6); rigid alpha-helical connection between 3TEL and …
As for B1, the binding result in data set [1] is “binds”.

B2: DARPin (Designed Ankyrin Repeat Protein) of 3TEL-rigid-DARPin (designed binder)
chain: DLGKKLLEAARAGQDDEVRILMANGADVNATDNDGYTPLHLAASNGHLEIVEVLLKNGADVNASDLTGITPLHAAAATGHLEIVEVLLKHGADVNAYDNDGHTPLHLAAKYGHLEIVEVLLKHGADVNAQDKFGKTAFDISIDNGNEDLAEILQKLN
notes: Designed Ankyrin Repeat Protein (DARPin), modelled from PDB ID 4J7W; Stood in the crystal joined on one chain with 3TEL; also called DAPRin; source: E. coli BL21(DE3), purified, as part of the 3TEL-rigid-DARPin chain
Turning to B2, the binding result in data set [2] is on record as “binds”.

B3: 1TEL (single TELSAM monomer) of 1TEL-flex-vWa (domain or fragment, human)
chain: GSIALPAHLRLQPIYWSRDDVAQWLKWAENEFSLRPIDSNTFEMNGKALLLLTKEDFRYRSPHSGDELYELLQHILAQ
notes: residue printed before TEL S47, left after SUMO cleavage; sterile alpha motif (SAM) domain of human ETS variant transcription factor 6 (TEL); Stood in the crystal joined on one chain with the vWa domain through one alanine; written apart for the contacts between the two parts
As to B3, the binding result in data set [3] is given as “binds”.

For the molecule B4, the binding result in data set [1] is given as “binds”.
